Data as given in patent US20250382353A1 (published 2025).

What was measured:
Experiment in all cases: SPR
BA.2 = molecular target: BA.2
rVSV-Delta spike = rVSV-Delta spike (SARS-CoV-2 Delta, UniProt P0DTC2 14-1252)
rVSV Beta spike = rVSV Beta spike (SARS-CoV-2 Beta, UniProt P0DTC2 14-1252)
[1] = molecular target: SARS-CoV-2 Omicron BA.1 spike (SARS-CoV-2 Omicron BA.1, UniProt P0DTC2 14-1208)

Binder	Kd (BA.2)	Kd (rVSV-Delta spike)	Kd (rVSV Beta spike)	Kd [1]
Fab 1C3 (Fab, V domains shown) VH: QVQLLESGGGLVQPGRSLRLSCAASGFTFDDYAMHWVRQPPGKGLEWVSGSSWNSGSVVYADSVKGRFTISRDSAKNSLHLQMNSLRVEDTALYYCAKAVDPTRGSYSPDYGFDIWGQGTMVTVS VL: not shown	0.023 nM	–	–	–
1C3 antigen-binding fragment (Fab) (Fab, V domains shown) VH: QVQLLESGGGLVQPGRSLRLSCAASGFTFDDYAMHWVRQPPGKGLEWVSGSSWNSGSVVYADSVKGRFTISRDSAKNSLHLQMNSLRVEDTALYYCAKAVDPTRGSYSPDYGFDIWGQGTMVTVS VL: not shown	–	0.036 nM	0.039 nM	0.041 nM
Fab 2A10 (antibody, V domains shown) VH: QVQLVESGGGLIQPGGSLRLSCAASEFIVSSNYMSWVRQAPGKGLEWVSLLYSGGTTYYADSVKGRFTISRDNSKNTLFLQMNSLRAEDTAMYYCARDRGPWLHDYWGQGTLVTVS VL: DIVMTQSPSSLSASVGDRVTITCQASQDINKYCNWYQQKPGKAPKLLIYDASNLETGVPSRFSGSGSGTDFTFTINSLQPEDIATYYCQQYDNLPPTFGGGTKVEIK	–	0.132 nM	–	4.42 nM
